Our source for the stoichiometry N values is publication doi:10.1101/2020.05.19.103432.

Test [1] concerns the target GltPh K55C/C321A/A364C mutant, cross-linked with HgCl2 (GltPh^IFS) (UniProt O59010). Description: cryo-EM structure.
Test [2] has as its target GltPh, fully functional seven-histidine mutant, referred to as wildtype (WT) (UniProt O59010). Description: cryo-EM structure.

Broadly, the stoichiometry N is the number of molecules, sites or subunits per partner or assembly.

In test [1], “GltPh K55C/C321A/A364C mutant, cross-linked with HgCl2 (GltPh^IFS) (from UniProt O59010 1-425) (natural protein)” showed a stoichiometry N of 3.
The substance “GltPh, fully functional seven-histidine mutant, referred to as wildtype (WT) (from UniProt O59010 1-417) (natural protein)” returned a stoichiometry N in test [2] of 3.
